Measured values published in patent publication US20260109758A1 (BIOSION, published 2026).
Read-outs that look alike come from different tables or passages of the source.

B1: huC2C1A1A1-V15(IgG4) (antibody)
heavy: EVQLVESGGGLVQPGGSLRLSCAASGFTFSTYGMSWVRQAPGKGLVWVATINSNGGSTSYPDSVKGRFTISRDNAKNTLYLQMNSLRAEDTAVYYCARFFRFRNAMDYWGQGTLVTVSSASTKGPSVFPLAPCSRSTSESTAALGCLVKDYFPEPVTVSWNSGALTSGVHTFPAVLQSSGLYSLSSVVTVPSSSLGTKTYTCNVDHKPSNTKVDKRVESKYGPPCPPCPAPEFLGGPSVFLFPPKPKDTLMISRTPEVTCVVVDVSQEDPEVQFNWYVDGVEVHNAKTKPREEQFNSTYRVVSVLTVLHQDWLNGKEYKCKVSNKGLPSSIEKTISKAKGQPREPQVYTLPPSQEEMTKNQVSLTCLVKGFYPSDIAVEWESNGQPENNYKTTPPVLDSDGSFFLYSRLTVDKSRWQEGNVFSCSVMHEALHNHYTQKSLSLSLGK
light: DIQMTQSPSSLSASVGDRVTITCRTSENIYSYLAWYQQKPGKAPKFLVYNAKTLAEGVPSRFSGSGSGTDFTLTISSLQPEDFATYYCQHYYGPPTWTFGQGTKVEIKRTVAAPSVFIFPPSDEQLKSGTASVVCLLNNFYPREAKVQWKVDNALQSGNSQESVTEQDSKDSTYSLSSTLTLSKADYEKHKVYACEVTHQGLSSPVTKSFNRGEC
notes: also called anti-IL4R huC2C1A1A1-V15
B2: hu1C5F12E9-V8(IgG4) (antibody)
heavy: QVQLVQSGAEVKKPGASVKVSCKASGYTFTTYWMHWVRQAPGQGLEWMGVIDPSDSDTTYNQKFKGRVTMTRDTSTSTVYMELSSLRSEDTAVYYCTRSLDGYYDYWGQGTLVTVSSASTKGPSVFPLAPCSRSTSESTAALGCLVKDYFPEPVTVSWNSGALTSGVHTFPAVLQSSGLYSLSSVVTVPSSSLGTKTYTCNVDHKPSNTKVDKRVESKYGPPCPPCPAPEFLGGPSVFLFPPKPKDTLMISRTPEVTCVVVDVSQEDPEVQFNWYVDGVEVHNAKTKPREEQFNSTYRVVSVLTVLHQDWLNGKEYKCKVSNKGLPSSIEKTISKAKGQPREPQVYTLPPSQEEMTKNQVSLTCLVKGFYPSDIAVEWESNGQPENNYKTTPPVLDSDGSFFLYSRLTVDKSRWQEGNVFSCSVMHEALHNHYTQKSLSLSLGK
light: DIQMTQSPSSLSASVGDRVTITCRPTENIYSYLAWYQQKPGKAPKLLIYFARTLAEGVPSRFSGSGSGTDFTLTISSLQPEDFATYYCQHHYGTPWTFGGGTKVEIKRTVAAPSVFIFPPSDEQLKSGTASVVCLLNNFYPREAKVQWKVDNALQSGNSQESVTEQDSKDSTYSLSSTLTLSKADYEKHKVYACEVTHQGLSSPVTKSFNRGEC
notes: also called parental anti-TSLP antibody hu1C5F12E9-V8(IgG4)
B3: Dupilumab (antibody, V domains shown)
VH: EVQLVESGGGLEQPGGSLRLSCAGSGFTFRDYAMTWVRQAPGKGLEWVSSISGSGGNTYYADSVKGRFTISRDNSKNTLYLQMNSLRAEDTAVYYCAKDRLSITIRPRYYGLDVWGQGTTVTVSS
VL: DIVMTQSPLSLPVTPGEPASISCRSSQSLLYSIGYNYLDWYLQKSGQSPQLLIYLGSNRASGVPDRFSGSGSGTDFTLKISRVEAEDVGFYYCMQALQTPYTFGQGTKLEIKR

Key:
[1] = target: T1, recombinant human IL4Rα-his (human, UniProt P24394 26-231, limits assumed, biotin-labeled in the capture ELISA); assay: competitive ELISA: coated human IL4Rα-his, antibody titrated; blocked ligand biotin human IL4
T1 construct: In-house made; not shown: His tag at the C-terminus
Protocol: (§1) Briefly, 100 μL human IL4Rα-his proteins (prepared in-house, IL4Rα of SEQ ID NO: 33 with C-terminal His tag) were coated on 96-well micro plates at 2 μg/mL in PBS overnight at 4° C. The next day, plates were washed with wash buffer (PBS+0.05% w/v Tween-20, PBST), and blocked with 5% w/v non-fatty milk in PBST for 2 hours at 37° C. Plates were then washed again using wash buffer. Serially diluted bispecific antibodies or the controls (starting at 100 nM with a 5-fold serial dilution) in 2.5% w/v non-fatty milk in PBST, 100 μL per well, were added to the IL4Rα bound plates, and incubated at 37° C. for 40 minutes. […] Plates were washed again using wash buffer. Thereafter, the plates were added with 100 μL/well of streptavidin conjugated HRP (1:10000 dilution in PBST buffer, Jackson Immunoresearch, Cat #016-030-084) and incubated for 40 minutes at 37° C. Plates were washed again using wash buffer. Finally, TMB was added and the reaction was stopped using 1M H₂SO₄, and the absorbance was read at 450 nm. Data was analyzed using Graphpad Prism and IC₅₀ values were reported.

[2] = target: T2, human IL4Rα expressed on 293F-IL4Rα cell surface (human, UniProt P24394 26-825); assay: flow cytometry on 293F-IL4Rα cells, PE anti-human IgG Fc
T2 construct: whole, on cells; also called human IL4Rα-expressing cells; cell surface IL4R
Protocol: (§2) Cells were washed twice with FACS buffer, and added with 100 μL/well R-Phycoerythrin AffiniPure Goat Anti-Human IgG, Fey fragment specific (1:1000 dilution in FACS buffer, Jackson Immunoresearch, Cat #109-115-098). Following an incubation of 40 minutes at 4° C. in dark, cells were washed three times and resuspended in FACS buffer. Fluorescence was measured using a Becton Dickinson FACS Canto II-HTS equipment. Data was analyzed using Graphpad Prism and EC₅₀ values were reported.

[3] = target: T1, recombinant human IL4Rα-his; assay: competitive ELISA: coated human IL4Rα-his, antibody titrated; blocked ligand biotin human IL4; remark: listed apart in the source
Protocol: as §1

[4] = target: human IL4Rα on HEK293T-IL4R/STAT6/STAT6-Luc LB2 cells (human, UniProt P24394 26-825); assay: cell-based or functional assay
[5] = target: T2, human IL4Rα expressed on 293F-IL4Rα …; assay: cell-based blocking FACS on 293F-IL4Rα cells; blocked ligand biotin human IL4
Protocol: (§3) Then, 1×10⁵ cells per well were incubated in 96 well-plates in 100 μL of serially diluted bispecific antibodies, the positive controls or negative control (starting at 100 nM with a 5-fold serial dilution) in FACS buffer for 40 minutes on ice. […] The plates were washed twice with FACS buffer, and then added and incubated for 40 minutes at 4° C. in dark with 100 μL/well R-Phycoerythrin Streptavidin (1:500 dilution in FACS buffer, Jackson Immunoresearch, Cat #016-110-084). Cells were washed twice and resuspended in FACS buffer. Fluorescence was measured using a Becton Dickinson FACS Canto II-HTS equipment. Data was analyzed using Graphpad Prism and IC₅₀ values were reported.

[6] = target: T1, recombinant human IL4Rα-his; assay: capture ELISA: antibody captured on anti-human IgG Fc F(ab')2, biotin human IL4Rα-his, SA-HRP
Protocol: (§4) Briefly, 96-well plates were coated with 2 μg/mL AffiniPure F(ab′)₂ Fragment Goat Anti-Human IgG, Fey fragment specific (Jackson Immuno Research, Cat #109-006-008) in PBS, 100 μL/well, overnight at 4° C. Plates were washed once with wash buffer (PBS+0.05% w/v Tween-20, PBST) and then blocked with 200 μL/well blocking buffer (5% w/v non-fatty milk in PBST) for 2 hours at 37° C. […] After a final wash, plates were incubated with 100 μL/well ELISA substrate TMB (Innoreagents, Cat #TMB-S-002). The reaction was stopped in 10 minutes at 25° C. with 50 μL/well 1M H₂SO₄, and the absorbance was read on a microplate reader using dual wavelength mode with 450 nm for TMB and 630 nm as the reference wavelength. Data was analyzed using Graphpad Prism and EC₅₀ values were reported.

[7] = target: T3, recombinant human TSLP-his (human, UniProt Q969D9 29-159, biotin-labeled in the ELISAs); assay: competitive ELISA: antibody pre-mixed with biotin human TSLP-his; blocked binding to coated TSLPR-Fc/IL7Ra-Fc
T3 construct: In-house made; not shown: His tag at the C-terminus
Protocol: Briefly, 100 μL human TSLPR-Fc proteins (SEQ ID NO: 34-SEQ ID NO: 38 fusion, prepared in-house) at 1 μg/mL in PBS, and 100 μL human IL7Ra-Fc proteins (SEQ ID NO: 35-SEQ ID NO: 38 fusion, prepared in-house) at 1 μg/mL in PBS were coated on 96-well micro plates overnight at 4° C. The next day, plates were washed with wash buffer (PBS+0.05% Tween-20, PBST), and blocked with 5% w/v non-fatty milk in PBST for 2 hours at 37° C. Plates were then washed again using wash buffer.
After incubation at 37° C. for 40 minutes, plates were washed 4 times using wash buffer. […] Plates were washed again using wash buffer. Finally, TMB was added and the reaction was stopped using 1M H₂SO₄. The absorbance was read on a microplate reader using dual wavelength mode with 450 nm for TMB and 630 nm as the reference wavelength, then the OD (450-630) values were plotted against the antibody concentration. Data was analyzed using Graphpad Prism and IC₅₀ values were reported.

[8] = target: T3, recombinant human TSLP-his; assay: capture ELISA: antibody captured on anti-human IgG Fc F(ab')2, biotin human TSLP-his, SA-HRP
Protocol: Briefly, 96-well micro plates were coated with 100 μL 2 μg/mL AffiniPure F(ab′)₂ Fragment Goat Anti-Human IgG, Fey fragment specific (Jackson Immuno Research, Cat #109-006-008) in PBS and incubated overnight at 4° C. Plates were washed 4 times with wash buffer (PBS+0.05% Tween-20, PBST) and then blocked with 200 μL/well blocking buffer (5% w/v non-fatty milk in PBST) for 2 hours at 37° C. […] After the final wash, the plates were incubated with 100 μL/well TMB (Innoreagents). The reaction was stopped 15 minutes later at room temperature with 50 μL/well 1M H₂SO₄, and the absorbance of each well was read on a microplate reader using dual wavelength mode with 450 nm for TMB and 630 nm as the reference wavelength. The OD (450-630) values were plotted against antibody concentration. Data was analyzed using Graphpad Prism and EC₅₀ values were reported.

[9] = target: T4, biotin-labeled human TSLP-Fc (human, biotin-labeled); assay: cell-based blocking FACS: antibody pre-mixed with biotin human TSLP-Fc; blocked binding to cell-surface TSLPR/IL7Ra on HEK293T-TSLPR/IL7R/STAT5-Luc 5C5 cells
T4 construct: also called TSLP-Fc protein; TSLP-Fc-biotin
Protocol: (§5) The cells were prepared following the instruction of lipofectamine 3000 transfection reagent (Thermo Fisher), by transfecting HEK293T cells (ATCC® CRL-11268) with pCMV-T-P plasmids inserted with TSLPR coding sequence between EcoRI and Xba1 sites and pCMV3-SP plasmids inserted with IL7Ra coding sequence between HindIII and Xba1 sites as well as pGL4.52 [luc2P/STAT5RE/Hygro](Promega).
(§6) The cells were harvested from cell culture flasks, washed twice and re-suspended in phosphate buffered saline (PBS) containing 2% v/v Fetal Bovine Serum (FACS buffer). […] Cells were washed twice with FACS buffer, and then added and incubated with 100 μL/well R-Phycoerythrin Streptavidin (1:500 dilution in FACS buffer, Jackson Immunoresearch, Cat #016-110-084) for 40 minutes at 4° C. in dark. Cells were washed twice and re-suspended in FACS buffer. Fluorescence was measured using a Becton Dickinson FACS Canto II-HTS equipment. Data was analyzed using Graphpad Prism and IC₅₀ values were reported.

[10] = target: T4, biotin-labeled human TSLP-Fc; assay: as above; remark: listed apart in the source
Protocol: as §5, §6

[11] = target: T2, human IL4Rα expressed on 293F-IL4Rα …; assay: cell-based blocking FACS on 293F-IL4Rα cells; blocked ligand biotin human IL4; remark: listed apart in the source
Protocol: as §3

[12] = target: T1, recombinant human IL4Rα-his; assay: capture ELISA: antibody captured on anti-human IgG Fc F(ab')2, biotin human IL4Rα-his, SA-HRP; remark: listed apart in the source
Protocol: as §4

[13] = target: T1, recombinant human IL4Rα-his; assay: SPR Biacore T200; antibody captured on anti-human IgG CM5 chip, IL4Rα-his as analyte; 1:1 Langmuir fit
Protocol: The goat anti-human IgG (GE healthcare, Cat #BR100839, Human Antibody Capture Kit) was covalently linked to a CM5 chip (carboxy methyl dextran coated chip) via primary amines, using a standard amine coupling kit provided by Biacore (GE healthcare, Pittsburgh, PA, USA). Un-reacted moieties on the biosensor surface were blocked with ethanolamine. Then, purified bispecific antibodies of the disclosure at the concentration of 66.67 nM and the controls at 10 μg/mL, were flowed onto the chip at a flow rate of 10 μL/min. Then, serially diluted recombinant human IL4Rα-his (in house made, IL4Rα of SEQ ID NO: 33 with His tag at C-terminus) in HBS EP buffer (provided by Biacore) was flowed onto the chip at a flow rate of 30 μL/min. The association and dissociation curves were fit to a 1:1 Langmuir binding model using BIAcore evaluation software.

[14] = target: T2, human IL4Rα expressed on 293F-IL4Rα …; assay: flow cytometry on 293F-IL4Rα cells, PE anti-human IgG Fc; remark: listed apart in the source
Protocol: as §2

Row | Binder | IC50 [1] [nM] | EC50 [2] [nM] | IC50 [3] [nM] | Inhibition on IL4 induced STAT6 phosphorylation (IC50, nM) [4] [nM] | Inhibition on IL13 induced STAT6 phosphorylation (IC50, nM) [4] [nM] | IC50 [5] [nM] | EC50 [6] [nM] | IC50 [7] [nM] | EC50 [8] [nM] | IC50 [9] [nM] | IC50 [10] [nM] | IC50 [11] [nM] | EC50 [12] [nM] | Kd [13] [nM] | koff [13] [s⁻¹] | kon [13] [M⁻¹ s⁻¹] | EC50 [14] [nM]
1 | B1 | 0.364 | ~0.161 | 0.266 | 0.015 | 0.033 | 0.107 | 0.0225 | – | – | – | – | – | – | – | – | – | –
2 | B2 | – | – | – | – | – | – | – | 0.0716 | 0.0512 | 1.04 | 1 | – | – | – | – | – | –
3 | B3 | 0.254 | – | 0.22 | 0.00473 | 0.0262 | – | – | – | – | – | – | 0.102 | 0.015 | 0.196 | 5.58e-05 | 285000 | 0.128
